Like-named read-outs stand apart in the source and are kept apart here.
Assays:
[1] = target: PrgL_(32-208)-His, soluble C-terminal NTF2-like domain of PrgL (Enterococcus faecalis (plasmid pCF10)); assay: SEC-MALS
[2] = target: PrgL_(32-208)-His, soluble C-terminal NTF2-like domain of PrgL (Enterococcus faecalis (plasmid pCF10)); assay: SEC-MALS; remark: listed apart in the source
[3] = target: full-length PrgL-GFP (Enterococcus faecalis (plasmid pCF10)); assay: SEC
[4] = target: full-length PrgL-His (Enterococcus faecalis (plasmid pCF10)); assay: cross-linking

In the case of “PrgL_(32-208)-His, soluble C-terminal NTF2-like domain of PrgL (domain or fragment)”, the stoichiometry N [1] is reported as 10 to 12 and the stoichiometry N [2] is reported as 2.

With full-length PrgL-GFP (natural protein) the stoichiometry N [3] was 2.

full-length PrgL-His (natural protein) gave a stoichiometry N [4] of 2.
